Values quoted from earlier work as cited in article PMC6589385.

Molecular target: His19 (position 19, …)
Test: NMR
Conditions: Membrane-bound wild-type BM2 tetrameric channel

**Q.** With MLEPFQILSISSFILSALHFMAWTIGHLNQIKR [Influenza B virus M2 protein (BM2) transmembrane domain, wild type (Influenza B virus)] as the protein, how does the pKa read?
**A.** Its pKa is 5.1.
